{"source": "patent US20240255509A1", "about": "“COMPOSITIONS AND METHODS RELATED TO K180 DIMETHYLATED H1.0 PROTEIN” (Aelan Cell Technologies, Inc., priority 2016, published 2024)", "molecules": {"B1": {"name": "G9A: recombinant G9A methyltransferase (NEB, M0235S) (protein, UniProt Q96KQ7 2-1210, looked up)", "Histone-lysine …": "AAAAGAAAAAAAEGEAPAEMGALLLEKETRGATERVHGSLGDTPRSEETLPKATPDSLEPAGPSSPASVTVTVGDEGADTPVGATPLIGDESENLEGDGDLRGGRILLGHATKSFPSSPSKGGSCPSRAKMSMTGAGKSPPSVQSLAMRLLSMPGAQGAAAAGSEPPPATTSPEGQPKVHRARKTMSKPGNGQPPVPEKRPPEIQHFRMSDDVHSLGKVTSDLAKRRKLNSGGGLSEELGSARRSGEVTLTKGDPGSLEEWETVVGDDFSLYYDSYSVDERVDSDSKSEVEALTEQLSEEEEEEEEEEEEEEEEEEEEEEEEDEESGNQSDRSGSSGRRKAKKKWRKDSPWVKPSRKRRKREPPRAKEPRGVNGVGSSGPSEYMEVPLGSLELPSEGTLSPNHAGVSNDTSSLETERGFEELPLCSCRMEAPKIDRISERAGHKCMATESVDGELSGCNAAILKRETMRPSSRVALMVLCETHRARMVKHHCCPGCGYFCTAGTFLECHPDFRVAHRFHKACVSQLNGMVFCPHCGEDASEAQEVTIPRGDGVTPPAGTAAPAPPPLSQDVPGRADTSQPSARMRGHGEPRRPPCDPLADTIDSSGPSLTLPNGGCLSAVGLPLGPGREALEKALVIQESERRKKLRFHPRQLYLSVKQGELQKVILMLLDNLDPNFQSDQQSKRTPLHAAAQKGSVEICHVLLQAGANINAVDKQQRTPLMEAVVNNHLEVARYMVQRGGCVYSKEEDGSTCLHHAAKIGNLEMVSLLLSTGQVDVNAQDSGGWTPIIWAAEHKHIEVIRMLLTRGADVTLTDNEENICLHWASFTGSAAIAEVLLNARCDLHAVNYHGDTPLHIAARESYHDCVLLFLSRGANPELRNKEGDTAWDLTPERSDVWFALQLNRKLRLGVGNRAIRTEKIICRDVARGYENVPIPCVNGVDGEPCPEDYKYISENCETSTMNIDRNITHLQHCTCVDDCSSSNCLCGQLSIRCWYDKDGRLLQEFNKIEPPLIFECNQACSCWRNCKNRVVQSGIKVRLQLYRTAKMGWGVRALQTIPQGTFICEYVGELISDAEADVREDDSYLFDLDNKDGEVYCIDARYYGNISRFINHLCDPNIIPVRVFMLHQDLRFPRIAFFSSRDIRTGEELGFDYGDRFWDIKSKYFTCQCGSEKCKHSAEAIALEQSRLARLDPHPELLPELGSLPPVNT"}}, "assay_type_in_all_cases": "biochemical", "key": {"[1]": {"target": "T1, unmodified H1.0 peptide ([…] (SEQ ID NO:42)) (Homo sapiens, UniProt P07305)", "T1 construct": "purchased ThermoFisher Scientific (peptide); NEB (G9A) M0235S (G9A)", "experiment": "In vitro methylation with G9A, products identified by LC-MS", "description": "(§1) In order to identify the precise sites of methylation by G9A and GLP methyltransferases on histone H1.0, in vitro methylation assays were performed and subsequently analyzed by Liquid Chromatography and High-resolution Mass Spectrometry (LC-MS) analysis. Methylation reactions were set up using either G9A methyltransferase (NEB, M0235S, Lot #0031201) or GLP methyltransferase (Cayman Chemical, 10755). The methyl donor in each reaction was unlabeled S-Adenosyl-L-Methionine (NEB, B9003S). […]\n(§2) For the Liquid Chromatography and High-resolution Mass Spectrometry (LC-MS) analysis, samples were prepared as described above and about 1 μg o the product was injected onto a Thermo Scientific Easy nLC system configured with a 10 cm×100 um trap column and a 25 cm×100 um ID resolving column. […] This ensured optimal full-scan data for quantification. […]\n(§3) Protein identification was performed using Thermo Scientific Proteome Discoverer version 1.4 (including Sequest and Percolator algorithms) using RefSeqHuman sequence database. […] Protein quantification was performed using Pinpoint version 1.4 software. The Pinpoint quantification workflow included importing the Proteome Discoverer .msf files as spectral libraries. Identified peptides were subsequently quantified in MS .raw files using the Pinpoint peak finding, chromatographic alignment and area calculation algorithms. […]"}, "[2]": {"target": "T2, H1.0 peptide (Homo sapiens, UniProt P07305)", "T2 construct": "purchased ThermoFisher Scientific (peptide); NEB (G9A) M0235S (G9A)", "experiment": "Radiolabel in vitro methylation assay with G9A", "details": "10 U G9A, 37° C. 1 hour, autoradiography", "description": "In order to visualize methylation of H1.0 peptide by G9A methyltransferase in vitro, a methylation assay was performed incorporating a radiolabelled methyl donor, which allows for visualization of methylated peptide on a gel after autoradiography exposure. The following methylation reaction was set up in a 1.5 ml tube: 1×HMT reaction buffer (50 mM Tris-HCl, 5 mM MgCl2, 4 mM dithiothreitol, pH 9.0), 10 U G9A Methyltransferase (NEB, M0235S, Lot #0031201), 3.2 mM Adenosyl-L-Methionine, S-[Methyl-3H] (Perkin Elmer, NET155H, Lot #1664720), 10 μg H1.0 peptide (ThermoFisher Scientific, Biotin-[…] (SEQ ID NO:75)), final volume 10 μl. A control reaction as above but without H1.0 peptide was also created. Reactions were incubated in a thermocycler at 37° C. for 1 hour. Reactions were stopped by incubating on ice for 5 minutes, and subsequently resolved on a 16.5% Tricine gel (BioRad, 4563063). Gels were soaked in 30% methanol, 5% glycerol for 30 minutes before vacuum drying at RT for 24 hours. Autoradiography analysis of dried gels with a phosphorimager (Molecular Dynamics) was then performed to assess effective methylation of H1.0 peptide with methyl-3H groups by the G9A methyltransferase.\nThe methylation reaction was subsequently resolved on a gel and visualized via autoradiography. […] A control reaction lacking H1.0 peptide yielded no tritium-labeled products."}, "[3]": {"target": "T3, recombinant human H1.0 protein (Homo sapiens, UniProt P07305)", "T3 construct": "full-length recombinant human H1.0 (NEB, M2501S); purchased NEB M2501S (H1.0); M0235S (G9A)", "experiment": "In vitro methylation with G9A, products identified by LC-MS", "details": "1 μg full-length protein", "description": "as §1, §2, §3"}, "[4]": {"target": "T4, K180me2 peptide (H1.0 AA 165-182) (Homo sapiens, UniProt P07305)", "T4 construct": "the K180me2 peptide (H1.0 AA 165-182) was used as a substrate; purchased ThermoFisher Scientific (peptide); NEB (G9A) M0235S (G9A)", "experiment": "In vitro methylation with G9A, products identified by LC-MS", "details": "K180me2 peptide as substrate", "description": "In order to identify the precise sites of methylation by G9A and GLP methyltransferases on histone H1.0, in vitro methylation assays were performed and subsequently analyzed by Liquid Chromatography and High-resolution Mass Spectrometry (LC-MS) analysis. Methylation reactions were set up using either G9A methyltransferase (NEB, M0235S, Lot #0031201) or GLP methyltransferase (Cayman Chemical, 10755). The methyl donor in each reaction was unlabeled S-Adenosyl-L-Methionine (NEB, B9003S). The H1.0 substrate in each reaction was either unmodified H1.0 peptide labeled with biotin (ThermoFisher Scientific, Biotin-[…] (SEQ ID NO:75)), di-methylated H1.0 peptide (ThermoFisher Scientific, Biotin-[…]^(me2)PK (SEQ ID NO:76)), or full-length recombinant human H1.0 (NEB, M2501S). Methylation reactions were set up in triplicate for each condition as follows: 1×HMT reaction buffer (50 mM Tris-HCl, 5 mM MgCl2, 4 mM dithiothreitol, pH 9.0); 10 U G9A or GLP Methyltransferase; 3.2 mM S-Adenosyl-L-Methionine; 500 ng unmodified or modified H1.0 peptide, or 1 μg full-length protein; final volume 10 μl. As controls, reactions were set up as above but without any methyltransferase present. […]\nas §2, §3"}}, "data": [{"molecule": "B1", "values": [{"measurement": "peptides dimethylated at H1.0K180, % of all peptides", "setting": "[1]; 10 U enzyme, 3.2 mM S-Adenosyl-L-Methionine, 37° C. 1 hour, spectral counts", "result": 99.9, "unit": "%"}, {"measurement": "estimated methylation efficiency for K180 dimethylation", "setting": "[1]; other lysines (K166, K174, K175 or K177) not dimethylated", "result": "about 99%"}, {"measurement": "methylation of H1.0 peptide with tritium-labeled methyl groups (band at 4 kDa)", "setting": "[2]", "result": "capable of methylating H1.0 peptide"}, {"measurement": "sites of methylation on full-length H1.0", "setting": "[3]", "result": "methylates C-terminal lysine residues, including H1.0K180me2"}, {"measurement": "H1.0K166me1K180me2, % of the total peptide in the reaction", "setting": "[4]", "result": 1.27, "unit": "%"}, {"measurement": "H1.0K174me1K180me3, % of the total peptide in the reaction", "setting": "[4]", "result": 1.06, "unit": "%"}, {"measurement": "H1.0K174me3K175me3K177me1K180me2, % of the total peptide in the reaction", "setting": "[4]", "result": 0.35, "unit": "%"}]}]}
